Consider six molecules from patent publication US20190161754A1, “FLUORESCENT BIOSENSOR FOR 2', 3'-CGAMP” (The Regents of the University of California, priority 2016, published 2019).

A word on the IC50: it is the concentration that inhibits the measured activity by half.

Data set [1] addresses T1, cGAS (Homo sapiens, UniProt Q8N884). The data set is described as follows: Thin-layer chromatography based (radiolabeled TLC) cGAS activity assay with DNA intercalators. As to conditions: 100 μM concentration. The format is biochemical. The arrangement: DNA-dependent human cGAS activity was assayed with recombinant full-length cGAS and HT-DNA; implied by Ni-NTA capture and imidazole elution; made in house; host or cells: BL21-RIL DE3 E. coli. As to the method: Quinacrine intercalation can lengthen the B-form DNA helix but otherwise would not grossly alter conformation (Hossain et al., (2008). DNA intercalation by quinacrine and methylene blue: a comparative binding and thermodynamic characterization study. DNA Cell Biol 27, 81-90). To support the proposed mechanism of action, other DNA intercalators were tested for effects on cGAS activity. The radiolabeled TLC assay was employed in order to avoid possible complications in data interpretation from compounds interacting with the RNA biosensor. […] Importantly, the enzyme-independent effect of compounds on fluorescence of the RNA biosensors can easily be analyzed in control reactions, which allows one to distinguish compounds in the screen that likely interact with the DNA instead of the enzyme directly.
DNA-dependent human cGAS activity was assayed with recombinant full-length cGAS and HT-DNA (Sigma-Aldrich, St Louis, Mo.). cGAS (estimated final concentration 1.5 μM) or equal volumes of water were incubated with HT-DNA (final concentration 0.1 mg/ml) in the presence of 250 μM ATP and GTP and [a-32P] ATP or GTP (˜30 nM) as indicated. All reactions included 100 mM NaCl, 10 mM MgCl2, 40 mM Tris-HCl (pH 7.5), and reactions were incubated at 37° C. for 1.5 hr. Reactions were terminated with the addition of 5 U of alkaline phosphatase (New England Biolabs) and incubation at 37° C. for 30 min. One microliter of each reaction was spotted onto a PEI-Cellulose F thin-layer chromatography plate (EMD Millipore), and reaction products were separated with the use of 1.5 M KH2PO4 (pH 3.8) as solvent. Plates were dried and radiolabeled products were detected with a phosphor screen and the Typhoon phosphorimager (GE Life Sciences).

Data set [2] has as its target T1, cGAS. The data set is described as follows: cGAS inhibition assay read out by RNA-based fluorescent biosensor. Format: biochemical. Further details: implied by Ni-NTA capture and imidazole elution; made in house; host or cells: BL21-RIL DE3 E. coli. As to conditions: decrease of signal independent of enzyme activity, called artefactual, read-out: apparent IC50.
Protocol: To initiate the enzyme reaction, 0.5 μL of HT-DNA was added to 2.5 μL of 6× enzyme reaction solution containing cGAS, GTP, ATP and cGAS reaction buffer. Generally, final concentrations are 100m/mL HT-DNA, 1.5 μM cGAS, 200 μM GTP, 200 μM ATP, and cGAS reaction buffer (40 mM Tris-HCl (pH 7.5), 100 mM NaCl, 10 mM MgCl2). The reaction was incubated at 37° C. for 2 hours to allow the enzyme reaction to proceed. […] To initiate the fluorescent biosensor reaction, 3 μL of the enzyme reaction was added to 27 μL of biosensor reaction solution containing renatured RNA, DFHBI (or DFHBI-1T), and biosensor activation buffer. Final concentrations are 200 nM RNA, 10 μM DFHBI (or DFHBI-1T), 40 mM HEPES, pH 7.5, 125 mM KCl, 10 mM MgCl2, and 0.1×cGAS reaction buffer (40 mM Tris-HCl (pH 7.5), 100 mM NaCl, 10 mM MgCl2). […] For the inhibition assay, due to the fluorescence of Quinacrine dihydrochloride, DFHBI-1T was used instead. Samples containing only Quinacrine dihydrochloride of varied concentration in the buffer were used for background fluorescence subtraction.
A further data set has as its system Spinach2 aptamer. The data set is described as follows: Fluorescence of dye-binding Spinach2 aptamer in presence of quinacrine (control). As to conditions: dose-dependent (FIG. 10). The source says:
FIG. 10 illustrates dose-dependent loss of fluorescence in presence of QC for both the 2′, 3′-cGAMP biosensor and Spinach2 aptamer.
Quinacrine is a DNA intercalator that may disrupt biosensor function by intercalating into the RNA helices.

For data set [3], the system named is cGAS. As to conditions: radiolabeled TLC assay, Gray et al. 2015; cited from earlier work.
Data set [4] is described as follows: In vitro fluorescence assay of GEMM-II riboswitch-based biosensors with 2′,3′-cGAMP (binding affinity, turn-on). As to conditions: for fold turn-on / Kd: 200 nM RNA; for fold turn-on: 100 μM 2′,3′-cGAMP; for Kd: ligand 2′,3′-cGAMP, 37° C., 3 mM Mg2+, 10 μM DFHBI, read-out: Kd (apparent dissociation constant). Here is the method: (§1) In vitro fluorescence assays were carried out in a buffer containing 40 mM HEPES, pH 7.5, 125 mM KCl. Other conditions, including temperature, concentrations of MgCl2, DFHBI (or DFHBI-1T), ligand (or cell extract) and RNA were varied in different experiments and are indicated in the figures. The RNA was renatured in buffer at 70° C. for 3 min and cooled to ambient temperature for 5 min prior to addition to the reaction solution. DFHBI (or DFHBI-1T) was added to a solution containing buffer and ligand, and then RNA was added at the end before fluorescence measurement. Binding reactions were performed either in 100 μL volumes (96-well plate) or 30 μL (384-well plate) and were incubated at the indicated temperature in either a Corning Costar 3915 96-well black plate or Greiner 781077 384-well black plate until equilibrium was reached, which typically takes 30 to 60 minutes. The fluorescence emission was measured using a Molecular Devices SpectraMax Paradigm Multi-Mode detection platform plate reader (Sunnyvale, Calif.) with the following instrument parameters (for DFHBI): 448 nm excitation, 506 nm emission. In case of DFHBI-1T 470 nm excitation and 510 nm emission was used.
(§2) To measure the binding affinities of 2′, 3′-cGAMP biosensors, fluorescence assays were performed with the following conditions: 37° C., 3 mM MgCl2, 200 nM RNA, and 10 μM DFHBI. The 2′, 3′-cGAMP concentration (ccGAMP) was varied, and the fluorescence of the sample with DFHBI but no RNA was subtracted as background to determine relative fluorescence units. The ratio between the fraction of biosensor that is bound by 2′, 3′-cGAMP and the total 2′, 3′-cGAMP biosensor concentration is given as:
(§3) where Fmin is the fluorescence of the sample containing no 2′,3′-cGAMP, while Fmax is the fluorescence of the sample containing highest concentration of 2′,3′-cGAMP (100 μM). The dissociation constants Kd were determined by least squares fitting to the following equation in Graphpad Prism software: […]

Data set [5] in a line: In vitro fluorescence assay of GEMM-II riboswitch-based biosensors with c-di-GMP (binding affinity, turn-on). As to conditions: for Kd: ligand c-di-GMP; for fold turn-on: 100 nM RNA, 100 μM c-di-GMP. Here is the method:
as §1, §2, §3

Data set [6] can be described thus: In vitro fluorescence assay of GEMM-II riboswitch-based biosensors with 3′,3′-cGAMP (binding affinity, turn-on). As to conditions: for fold turn-on: 100 nM RNA, 100 μM 3′,3′-cGAMP; for Kd: ligand 3′,3′-cGAMP. As to the method:
as §1, §2, §3

The next data set has as its system E. coli BL21-Star cells. The data set is described as follows: In vivo fluorescence assay by flow cytometry, biosensor co-expressed with cyclic dinucleotide synthases (WspR, DncV, cGAS). As to conditions: live E. coli, DFHBI-1T, DncV or cGAS co-expressed. In general terms: Flow cytometry measures light scatter and fluorescence of single cells or particles in a stream.

Starred links: 1 amine or outer side, 2 acyl side, 3 side chain; linkers in the order of their positions; H or OH if unused. Positions of bridges follow the written chain, without caps; N, C: chain ends. Non-standard residues stand in square brackets, D forms with d. Residues, ends and D or L forms follow the SMILES beside them. Chains are numbered I, II in the order given. Actinocin(9to1) = Cc1c2oc3c(C)ccc(C(=O)[*:1])c3nc-2c(C(=O)[*:2])c(N)c1=O; NMeV = CN[C@H](C(=O)O)C(C)C; Sar = CNCC(=O)O

T1 sequence (Q8N884 whole entry): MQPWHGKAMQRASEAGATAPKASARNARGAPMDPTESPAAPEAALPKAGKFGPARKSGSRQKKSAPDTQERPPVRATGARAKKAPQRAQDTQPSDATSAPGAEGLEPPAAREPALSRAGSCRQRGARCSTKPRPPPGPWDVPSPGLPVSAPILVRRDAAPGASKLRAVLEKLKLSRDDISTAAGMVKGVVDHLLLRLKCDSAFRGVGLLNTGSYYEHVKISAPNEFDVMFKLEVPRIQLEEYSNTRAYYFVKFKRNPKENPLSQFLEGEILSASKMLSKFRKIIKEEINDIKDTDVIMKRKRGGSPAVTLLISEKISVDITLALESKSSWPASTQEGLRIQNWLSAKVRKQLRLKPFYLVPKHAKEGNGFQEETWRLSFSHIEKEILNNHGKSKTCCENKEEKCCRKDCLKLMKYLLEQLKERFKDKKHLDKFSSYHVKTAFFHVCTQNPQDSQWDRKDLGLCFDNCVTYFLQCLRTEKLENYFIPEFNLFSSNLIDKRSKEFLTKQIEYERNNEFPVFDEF

As for `Cc1c2oc3c(C)ccc(C(=O)N[C@@H]4C(=O)N[C@H](C(C)C)C(=O)N5CCC[C@H]5C(=O)N(C)CC(=O)N(C)[C@@H](C(C)C)C(=O)O[C@@H]4C)c3nc-2c(C(=O)N[C@@H]2C(=O)N[C@H](C(C)C)C(=O)N3CCC[C@H]3C(=O)N(C)CC(=O)N(C)[C@@H](C(C)C)C(=O)O[C@@H]2C)c(N)c1=O` [Actinomycin D] (I: T[dV]P[Sar][NMeV] / II: T[dV]P[Sar][NMeV]; ester I:1-I:C, II:1-II:C; linker I:N-II:N via Actinocin(9to1)), the “inhibition of cGAS activity” value at cGAS [1] is on record as “partial inhibition”.

As for `CCN(CC)CCCC(C)Nc1c2ccc(Cl)cc2nc2ccc(OC)cc12` (centres unmarked) [Quinacrine], the values for the IC50 on cGAS [2] and with cGAS [3] were 39 ± 7 µM and 13 µM, respectively. The “effect on fluorescence of Spinach2 aptamer” value in the data set with Spinach2 aptamer is listed as “decreased fluorescence”. Moreover, the “inhibition of cGAS activity” value on cGAS [1] was “fully inhibited”.

With `CN(C)c1ccc2nc3ccc(=[N+](C)C)cc-3sc2c1` [methylene blue], the “inhibition of cGAS activity” value on cGAS [1] was “no effect”.

B1: Bh P1-5delC: Bh GEMM-II riboswitch fused to Spinach2 via 5 base-paired P1 stem with deletion of a single C, SEQ ID NO: 16 (nucleic acid)
chain: GATGTAACTGAATGAAATGGTGAAGGACGGGTCCAATAGGGAAGCAACGAAGCATAGCCTTTATATGGACACTTGGGTTATGTGGAGCTACTAGTGTAACCGGCCCTCTTTGTTGAGTAGAGTGTGAGCTCCGTAACTAGTTACATC
modifications: synthetic nucleic acid
With B1, in data set [4], the fold turn-on result is “(5.1x) fold” and the Kd was found to be 13.4 ± 0.9 µM. In addition, the Kd in data set [5] stood at 0.021 ± 0.008 µM.

B2: Bh P1-6 WT: GEMM-II riboswitch (Bacillus halodurans C-125)-Spinach2 biosensor, 6 base-paired P1 stem, SEQ ID NO: 12 (nucleic acid)
chain: GATGTAACTGAATGAAATGGTGAAGGACGGGTCCAAATAGGGAAGCAACGAAGCATAGCCTTTATATGGACACTTGGGTTATGTGGAGCTACTAGTGTAACCGGCCCTCCTTTTGTTGAGTAGAGTGTGAGCTCCGTAACTAGTTACATC
modifications: synthetic nucleic acid
For the molecule B2, the “fluorescence response to 2′,3′-cGAMP (in words)” value in data set [4] (20 μM ligand) was “no response”. Moreover, the fold turn-on entry in data set [6] is on record as “(10.8x) fold”; in data set [5], “(13.1x) fold”. The Kd in data set [6] was over 11 µM; in data set [6] (listed as wild-type Bh P1-6), over 10 µM; in data set [5], 0.056 µM. The “fluorescence activation with c-di-GMP” value in data set [5] (FIG. 17, panel B screen) is recorded as 5 fold.

B3: Bh P1-6 G103A: Bh P1-6 biosensor with G103A mutation in the binding pocket, SEQ ID NO: 18; G73A in b172, b180 likely the same (nucleic acid)
chain: GATGTAACTGAATGAAATGGTGAAGGACGGGTCCAAATAGGGAAGCAACGAAGCATAGCCTTTATATGGACACTTGGGTTATGTGGAGCTACTAGTGTAACCAGCCCTCCTTTTGTTGAGTAGAGTGTGAGCTCCGTAACTAGTTACATC
modifications: synthetic nucleic acid
notes: G73A, b180 likely the same
As to B3, the figures for the fold turn-on result in data set [4], in data set [6] and in data set [5] were “(10.3) fold”, “(9.6x) fold” and “(8.2x) fold”, respectively. For the same molecule, in data set [4] (200 nM biosensor, 20 μM ligand), the “fluorescence activation in response to 2′,3′-cGAMP” value is 5 fold. In addition, the Kd in data set [4] is over 65 µM; in data set [6], 0.8 µM; in data set [5] it was over 7.4 µM. Further, the “increase of binding affinity to 3′,3′-cGAMP relative to wild-type Bh P1-6” value in data set [6] (G103A versus wild-type) is given as “more than 10 fold”. In the data set with E. coli BL21-Star cells, the “cellular fluorescence activation upon co-expression of each enzyme” value was “Significant fluorescence activation”. The “reduction of binding affinity to c-di-GMP relative to wild-type Bh P1-6” value in data set [5] (G103A versus wild-type) is recorded as “more than 125 fold”.
